Assay results taken from patent publication US20250011433A1 (published 2025).
Where a chain is given by its changes, count along the chain named.

B1: G998 (Fc fusion)
chain: EPKSCDKTHTCPPCPAPELLGGPSVFLFPPKPKDTLMISRTPEVTCVVVDVEFEDPEVKFNWYVDGVEVHNAKTKPREEQYASTYRVVSVLTVLHQDWLNGKEYKCKVTNKALPAPIEKTISKAKGQPREPQVYTLPPSRDELTKNQVSLTCLVKGFYPSDIAVEWESNGQPENNYKTTPPVLDSDGSFFLYSKLTVDKSRWQQGNVFSCSVMHEALHNHYTQKSLSLSPGKERKCCVECPPCP
B2: G997 (Fc fusion)
chain: B1 chain with A82N
B3: G996 (Fc fusion)
chain: B1 chain with G21R, A82N

Biological target: C1q (UniProt P02745 23-245; P02746 28-253; P02747 29-245)
Sequence (P02745 23-245, chain 1 of 3): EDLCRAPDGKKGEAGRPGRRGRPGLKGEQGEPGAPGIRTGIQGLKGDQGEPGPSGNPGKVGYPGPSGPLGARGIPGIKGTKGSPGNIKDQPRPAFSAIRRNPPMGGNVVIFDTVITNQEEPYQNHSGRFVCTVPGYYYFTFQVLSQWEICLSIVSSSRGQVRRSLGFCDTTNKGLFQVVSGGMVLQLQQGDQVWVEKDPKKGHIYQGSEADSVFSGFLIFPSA
Sequence (P02746 28-253, chain 2 of 3): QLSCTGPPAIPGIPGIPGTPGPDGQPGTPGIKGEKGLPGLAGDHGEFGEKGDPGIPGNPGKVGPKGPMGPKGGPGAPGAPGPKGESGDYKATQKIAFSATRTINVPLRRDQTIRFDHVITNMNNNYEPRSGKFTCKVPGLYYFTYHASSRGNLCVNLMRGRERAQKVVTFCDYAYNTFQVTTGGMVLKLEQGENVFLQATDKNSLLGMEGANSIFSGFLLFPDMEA
Sequence (P02747 29-245, chain 3 of 3): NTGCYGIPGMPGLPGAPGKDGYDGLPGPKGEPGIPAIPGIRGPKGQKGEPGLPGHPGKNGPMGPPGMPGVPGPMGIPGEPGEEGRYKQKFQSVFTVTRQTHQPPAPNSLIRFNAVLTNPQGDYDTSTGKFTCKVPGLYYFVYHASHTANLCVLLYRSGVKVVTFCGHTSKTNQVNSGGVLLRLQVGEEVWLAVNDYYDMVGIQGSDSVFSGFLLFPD
Assay: ELISA

EC50 [mg/L]	Binder
0.334	B1
0.0166	B2
0.278	B3
